The results in this text go back to patent US20250304677A1 (VIB VZW, published 2025).

In test [1] the target is T1, human folate receptor alpha (hFRα), recombinant protein (human, UniProt P15328 25-233).
T1 construct: Bought recombinant proteins (His-tagged, or biotinylated via Avi-tag, e.g. AcroBiosystems FO1-H82E2, F01-H52H1); also called hFOLR1; huFOLR1
In words: BLI off-rate screening, crude periplasmic extract, biotinylated human FRα on streptavidin biosensors. The method, then:
(§1) Non-redundant clones were tested as crude periplasmatic extracts for binding analysis to human FRα and mouse FRα proteins captured on streptavidin biosensors in BLI. Variants P0150001 and P0150005 grown in the same 96-well plates were included as controls.

Test [2] deals with T2, mouse folate receptor alpha (mFRα), recombinant protein (mouse, UniProt P35846 25-232).
T2 construct: Bought recombinant proteins (e.g. biotinylated, Acro Biosystems FO1-M82E9); also called mFOLR1; Ms FOLR1
T2 sequence (P35846 25-232 limits assumed): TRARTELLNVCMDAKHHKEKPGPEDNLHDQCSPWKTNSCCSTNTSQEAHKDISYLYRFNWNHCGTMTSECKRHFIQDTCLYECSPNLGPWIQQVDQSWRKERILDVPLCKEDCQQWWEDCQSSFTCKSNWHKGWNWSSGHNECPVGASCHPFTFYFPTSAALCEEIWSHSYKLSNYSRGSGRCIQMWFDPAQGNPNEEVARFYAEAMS
Briefly: BLI off-rate screening, crude periplasmic extract, biotinylated mouse FRα on streptavidin biosensors. As for the experimental part:
as §1

The target of test [3] is T1, human folate receptor alpha (hFRα), …. Briefly: BLI off-rate analysis.
The target of test [4] is T2, mouse folate receptor alpha (mFRα), …. Briefly: BLI off-rate analysis.
The target in test [5] is T1, human folate receptor alpha (hFRα), …. In words: BLI, Avi-biotinylated FRα on streptavidin biosensors, VHH 100 nM. As for the experimental part:
(§2) The binding of humanized variants of 2HFO42 was assessed by kinetic binding analysis to mouse and human FRα protein, biotinylated via an Avi-tag, captured on streptavidin biosensors by biolayer interferometry ^{∘}BLI), essentially as described earlier. VHHs were analysed at 100 nM concentration, and off-rates were determined using fitting of 1:1 langmurian interaction. Dissociation constants were compared to 2HFO42^{∘}Q1E, Q5V, Q108L) ^{∘}P101500004) and 2MFR67 ^{∘}Q1E, Q5V, Q108L) ^{∘}P0150000), respectively.
For orientation: In BLI a coated tip is dipped into the sample, and binding shifts an interference pattern.

Test [6] addresses T2, mouse folate receptor alpha (mFRα), …. The test is described as above. As for the experimental part: as §2

As usually defined, the koff is the rate constant with which the complex falls apart.

T1 sequence (P15328 25-233 limits assumed): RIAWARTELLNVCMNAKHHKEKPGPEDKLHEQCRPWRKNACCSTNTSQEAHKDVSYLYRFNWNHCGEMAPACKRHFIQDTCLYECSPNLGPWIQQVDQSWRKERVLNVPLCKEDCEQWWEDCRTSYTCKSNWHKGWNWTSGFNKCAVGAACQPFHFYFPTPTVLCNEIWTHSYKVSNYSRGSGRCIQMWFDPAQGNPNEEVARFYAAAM

B1: [N73G] (VHH)
VHH: EVQLVESGGGLVQPGGSLRLSCAASGSGFSGMIMGWYRQAPGKQRELVATVTSHGTTNYADSVKGRFTISRDGAKNTVYLQMNSLRPEDTAVYYCNAHFPGIYWGKGTLVTVSS
notes: library clone tested as crude periplasmic extract; also called P01500001[N73G]
For the molecule B1, the binding result in test [1] and in test [2] was “binds” each time.

B2: P01500079: P01500001[E1D]Flag3-His6-GS-NT (VHH)
VHH: DVQLVESGGGLVQPGGSLRLSCAASGSGFSGMIMGWYRQAPGKQRELVATVTSHGTTNYADSVKGRFTISRDNAKNTVYLQMNSLRPEDTAVYYCNAHFPGIYWGKGTLVTVSS
notes: Entry includes tags, linker and NT(8-13); also called humanised 2HFO42, P01500079
As for B2, the values for the koff in test [3] and in test [4] were 0.0101 s⁻¹ and 0.00224 s⁻¹, respectively.

B3: P01500072: P01500001[E1D, G26E, G28P, D72E, N73G]Flag3-His6-GS-NT (VHH)
VHH: DVQLVESGGGLVQPGGSLRLSCAASESPFSGMIMGWYRQAPGKQRELVATVTSHGTTNYADSVKGRFTISREGAKNTVYLQMNSLRPEDTAVYYCNAHFPGIYWGKGTLVTVSS
notes: Entry includes tags, linker and NT(8-13)
In the case of B3, the values for the off-rate (koff) in test [3] and in test [4] were 0.000307 s⁻¹ and 2.1e-05 s⁻¹, respectively.

B4: [V51R] (VHH)
VHH: EVQLVESGGGLVQPGGSLRLSCAASGSGFSGMIMGWYRQAPGKQRELVATRTSHGTTNYADSVKGRFTISRDNAKNTVYLQMNSLRPEDTAVYYCNAHFPGIYWGKGTLVTVSS
notes: library clone tested as crude periplasmic extract; also called P01500001[V51R]
Regarding B4, the binding result in test [1] and in test [2] was “binds” each time.

B5: [S30I] (VHH)
VHH: EVQLVESGGGLVQPGGSLRLSCAASGSGFIGMIMGWYRQAPGKQRELVATVTSHGTTNYADSVKGRFTISRDNAKNTVYLQMNSLRPEDTAVYYCNAHFPGIYWGKGTLVTVSS
notes: library clone tested as crude periplasmic extract; also called P01500001[S30I]
Take B5: the binding result in test [1] and in test [2] was “binds” in each case.

B6: P01500070: P01500001[E1D, I33F, N73P]Flag3-His6-GS-NT (VHH)
VHH: DVQLVESGGGLVQPGGSLRLSCAASGSGFSGMFMGWYRQAPGKQRELVATVTSHGTTNYADSVKGRFTISRDPAKNTVYLQMNSLRPEDTAVYYCNAHFPGIYWGKGTLVTVSS
notes: Entry includes tags, linker and NT(8-13); produced in HEK-F cells
With B6, the results for the dissociation rate constant (koff) in test [3] and in test [4] were 0.00151 s⁻¹ and 0.000192 s⁻¹, respectively.

B7: P01500074: P01500001[E1D, G26E, I33L]Flag3-His6-GS-NT (VHH)
VHH: DVQLVESGGGLVQPGGSLRLSCAASESGFSGMLMGWYRQAPGKQRELVATVTSHGTTNYADSVKGRFTISRDNAKNTVYLQMNSLRPEDTAVYYCNAHFPGIYWGKGTLVTVSS
notes: as for B3
B7: the figures for the koff in test [3] and in test [4] were 0.00181 s⁻¹ and 0.000328 s⁻¹, respectively.

B8: P01500071: P01500001[E1D, G26E, I33F]Flag3-His6-GS-NT (VHH)
VHH: DVQLVESGGGLVQPGGSLRLSCAASESGFSGMFMGWYRQAPGKQRELVATVTSHGTTNYADSVKGRFTISRDNAKNTVYLQMNSLRPEDTAVYYCNAHFPGIYWGKGTLVTVSS
notes: as for B3
For B8, the off-rate (koff) was 0.00266 s⁻¹ in test [3] and 0.000326 s⁻¹ in test [4].

B9: P01500076: P01500001[E1D, G26E, G28T, S30I, I33L]Flag3-His6-GS-NT (VHH)
VHH: DVQLVESGGGLVQPGGSLRLSCAASESTFIGMLMGWYRQAPGKQRELVATVTSHGTTNYADSVKGRFTISRDNAKNTVYLQMNSLRPEDTAVYYCNAHFPGIYWGKGTLVTVSS
notes: as for B3
For B9, the koff worked out at 0.00112 s⁻¹ in test [3] and 0.000164 s⁻¹ in test [4].

B10: P01500073: P01500001[E1D, G28T, S30I]Flag3-His6-GS-NT (VHH)
VHH: DVQLVESGGGLVQPGGSLRLSCAASGSTFIGMIMGWYRQAPGKQRELVATVTSHGTTNYADSVKGRFTISRDNAKNTVYLQMNSLRPEDTAVYYCNAHFPGIYWGKGTLVTVSS
notes: as for B3
For the molecule B10, the koff in test [3] came out at 0.00346 s⁻¹; in test [4] it was 0.000497 s⁻¹.

B11: P01500007: 2HF042(Q1E, Q5V, A14P, V40A, L79Y, K83R, K105Q, Q108L)-FLAG3-HIS6 (VHH)
VHH: EVQLVESGGGLVQPGGSLRLSCAASGSGFSGMIMGWYRQAPGKQRELVATVTSHGTTNYADSVKGRFTISRDNAKNTVYLQMNSLRPEDTAVYYCNAHFPGIYWGQGTLVTVSS
notes: Entry includes the tags
On to B11, for which the koff in test [5] was found to be 0.0164 s⁻¹; in test [6] it was 0.00292 s⁻¹.

B12: P01500075: P01500001[E1D, I33L, N73P]Flag3-His6-GS-NT (VHH)
VHH: DVQLVESGGGLVQPGGSLRLSCAASGSGFSGMLMGWYRQAPGKQRELVATVTSHGTTNYADSVKGRFTISRDPAKNTVYLQMNSLRPEDTAVYYCNAHFPGIYWGKGTLVTVSS
notes: as for B3
For B12, the off-rate constant (koff) in test [3] was found to be 0.00125 s⁻¹; in test [4] it was 0.000125 s⁻¹.

B13: P01500077: P01500001[E1D, G28T, S30I, N73P]Flag3-His6-GS-NT (VHH)
VHH: DVQLVESGGGLVQPGGSLRLSCAASGSTFIGMIMGWYRQAPGKQRELVATVTSHGTTNYADSVKGRFTISRDPAKNTVYLQMNSLRPEDTAVYYCNAHFPGIYWGKGTLVTVSS
notes: as for B3
Turning to B13, the off-rate constant (koff) in test [3] was determined as 0.00217 s⁻¹; in test [4] it was 0.000335 s⁻¹.
